Laboratory results as given in PMC6586891, “On the molecular and cellular effects of omeprazole to further support its effectiveness as an antigiardial drug” (Scientific Reports, 2019).

System: O=CC(O)COP(=O)(O)O
Experiment: Michaelis-Menten kinetics of purified enzyme (Km), coupled alpha-GDH/NADH assay
Assay type: biochemical, Giardia duodenalis

With “Giardia lamblia triosephosphate isomerase (GlTIM Tmut) (Giardia duodenalis; C202A/C222A/C228A)” the Km was 1200 ± 90 µM and the kcat/Km was 1.92e+06 M⁻¹ s⁻¹.
